Test results from paper PMC9858708, “Genetic and Molecular Interactions between H^ΔCT, a Novel Allele of the Notch Antagonist Hairless, and the Histone Chaperone Asf1 in Drosophila melanogaster” (Genes, 2023).

T1: Asf1-HA-MBP (full-length Drosophila Asf1) (Drosophila melanogaster, UniProt Q9V464 1-218)
T1 construct: Anti-silencing factor 1 (Asf1), Drosophila melanogaster, full length; HA-tagged region derived by PCR from the pJG4-5 construct; also called Asf-HA; HA-tagged Asf1; source: E. coli UT580, purified (amylose beads); not shown: HA, N-terminal, kept
T1 sequence (looked up): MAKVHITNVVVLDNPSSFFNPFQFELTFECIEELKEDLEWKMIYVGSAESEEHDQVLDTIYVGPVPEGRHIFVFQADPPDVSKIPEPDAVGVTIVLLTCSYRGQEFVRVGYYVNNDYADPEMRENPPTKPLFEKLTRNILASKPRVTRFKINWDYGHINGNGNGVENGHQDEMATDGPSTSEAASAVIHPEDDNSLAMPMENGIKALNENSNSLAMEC

T2: Asf1 (1–154) (D. melanogaster, UniProt Q9V464 1-154)
T2 construct: Anti-silencing factor 1 (Asf1), D. melanogaster, amino acids 1-154; modified pET-14p construct
T2 sequence (looked up): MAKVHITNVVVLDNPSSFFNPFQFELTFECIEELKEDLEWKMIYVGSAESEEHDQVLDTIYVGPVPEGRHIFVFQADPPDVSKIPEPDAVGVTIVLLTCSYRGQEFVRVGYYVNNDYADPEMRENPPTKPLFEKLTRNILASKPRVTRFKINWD


Columns and labels:
Details in all cases: both partners purified
[1] = molecular target: T3, Su(H)-GST fusion protein (Su(H) codons 288–594) (Drosophila melanogaster, UniProt P28159 288-594); assay: co-IP; Myc-trap: purified Asf1-HA-MBP or Su(H)-GST mixed 1:1 with NTCTmyc-MBP peptides, about 10 min at 4 °C, 150 mM NaCl, 50 mM Tris pH7.5, 0.1% SDS; Myc-tagged H peptides trapped on anti-Myc nanobody magnetic beads 1 h at 4 °C; Western blot with anti-Myc, anti-HA, anti-GST
T3 construct: also called GST Su(H); GST-tagged Su(H); source: E. coli UT580, purified (glutathione-sepharose 4B)
T3 sequence (P28159 288-594): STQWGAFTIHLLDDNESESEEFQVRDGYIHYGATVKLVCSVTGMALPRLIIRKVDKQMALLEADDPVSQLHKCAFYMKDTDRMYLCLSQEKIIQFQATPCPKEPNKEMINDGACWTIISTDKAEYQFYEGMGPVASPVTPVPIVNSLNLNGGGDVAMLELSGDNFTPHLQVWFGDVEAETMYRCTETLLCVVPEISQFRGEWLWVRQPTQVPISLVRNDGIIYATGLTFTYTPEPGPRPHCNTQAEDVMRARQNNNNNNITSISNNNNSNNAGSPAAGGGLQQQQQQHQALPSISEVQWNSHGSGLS

[2] = molecular target: T1, Asf1-HA-MBP (full-length Drosophila …); assay: as above
Asf1 (1–154) [3] = molecular target: T2, Asf1 (1–154); assay: ITC; MicroCal VP-ITC, 25 °C, 20 mM HEPES pH 7.5, 150 mM NaCl; typically 100 μM Hairless in the syringe and 10 μM Asf1 in the cell; one-site binding model
Asf1 (1–154) [4] = molecular target: T2, Asf1 (1–154); assay: as above; remark: listed apart in the source

Row | Binder | binding result [1] | binding result [2] | Ka (Asf1 (1–154) [3]) [M⁻¹] | Kd (Asf1 (1–154) [3]) [nM] | dH (Asf1 (1–154) [3]) [kcal/mol] | stoichiometry N (Asf1 (1–154) [4])
1 | PWKQSRPRRGISKELSLFFHRPRNSTLGRAALRTAARKRRRPHE (domain or fragment, Drosophila melanogaster, UniProt Q02308 315-358, looked up, Hairless (H), Drosophila, residues 315-358; His-SUMO fusion from a modified pET-28b+ vector; also called Hairless 315–358) [H (315–358)] | – | – | 680000 | 1700 | -8.7 | –
2 | H (232–358) (domain or fragment, Drosophila melanogaster, UniProt Q02308 232-358, looked up, Hairless (H), Drosophila, residues 232-358; His-SUMO fusion from a modified pET-28b+ vector; also called Hairless 232–358) GGRLQFFKDGKFILELARSKDGDKSGWVSVTRKTFRPPSAATSATVTPTSAVTTAYPKNENSTSLSFSDDNSSIQSSPWQRDQPWKQSRPRRGISKELSLFFHRPRNSTLGRAALRTAARKRRRPHE | – | – | 250000 | 4200 | -8.6 | 1

Second part, the binder after the results:

Row | binding result [1] | binding result [2] | Ka (Asf1 (1–154) [3]) [M⁻¹] | Kd (Asf1 (1–154) [3]) [nM] | dH (Asf1 (1–154) [3]) [kcal/mol] | stoichiometry N (Asf1 (1–154) [4]) | Binder
3 | binds | binds | – | – | – | – | NTCTmyc-MBP (Hairless Ser 212 - Ile 369) (domain or fragment, Drosophila melanogaster, UniProt Q02308 212-369, looked up, Hairless (H), Drosophila melanogaster, NTCT region Ser 212 - Ile 369; source: E. coli UT580, purified (amylose beads); not shown: Myc, N-terminal, kept) SFDMGRTPISTHGNNSWGGYGGRLQFFKDGKFILELARSKDGDKSGWVSVTRKTFRPPSAATSATVTPTSAVTTAYPKNENSTSLSFSDDNSSIQSSPWQRDQPWKQSRPRRGISKELSLFFHRPRNSTLGRAALRTAARKRRRPHEPLTTSEDQQPI
4 | – | binds | – | – | – | – | Hairless 315–369 myc-MBP (domain or fragment, Drosophila melanogaster, UniProt Q02308 315-369, looked up, Hairless (H), Drosophila melanogaster, residues 315-369; also called aa 315–369; source: E. coli UT580, purified (amylose beads); not shown: Myc, N-terminal, kept) PWKQSRPRRGISKELSLFFHRPRNSTLGRAALRTAARKRRRPHEPLTTSEDQQPI
